This passage reports Kd results from PMC4597091.

The target of this test is PepT2^ECD-S427C, labelled for MST (Rattus norvegicus) (UniProt Q63424). As to the kind of experiment: MST; 1.5 μM labelled ECD (S437C or S427C, blue maleimide) with 0.03–1,000 μM ligand; 22°C; 25 mM MES pH 6.5, 100 mM NaCl.

The substance trypsin (intestinal protease) (enzyme) showed a Kd of 6 µM.
